Measurements reported in patent US20120045438A1 (Janssen / Centocor, published 2012).

molecular target: T1, human IL-13 R130Q variant (R110Q of the mature chain) (human, UniProt P35225 35-146, Biotinylated on amines (NHS-LC-biotin, 4:1) in ELISA, panning and competition assays. The letters are unchanged.); experiment: single-point (10 nM) phage Fab ELISA on biotinylated IL-13 R130Q
T1 construct: R130Q counts from Met 1 of the signal peptide, R110Q on the mature chain; Bought from Peprotech; also called IL-13 R110Q; b-R130Q

| Binder | Signal (% of Lc16Hc7) [%] |
| --- | --- |
| Fab clone 1D01 (IL-13-62 library) (Fab, V domains shown, Fab on phage pIX) VH: QVTLKESGPVLVKPTETLTLTCTVSGFSLSTYGMGVGWIRQPPGKALEWLAHIWWDDVKRYNPALKSRLTISKDTSKSQVVLTMTNMDPVDTATYYCARMGSDYDVWFDYWGQGTLVTVSS VL: EIVLTQSPATLSLSPGERATLSCRASKSISKYLAWYQQKPGQAPRLLIYSGSTLQSGIPARFSGSGSGTDFTLTISSLEPEDFAVYYCQQHSYGPYTFGQGTKLEIK | 144 |
| Fab clone 1D02 (IL-13-62 library) (Fab, V domains shown, Fab on phage pIX) VH: QVTLKESGPVLVKPTETLTLTCTVSGFSLSTYGMGVGWIRQPPGKALEWLAHIWWDDVKRYNPALKSRLTISKDTSKSQVVLTMTNMDPVDTATYYCARMGSDYDVWFDYWGQGTLVTVSS VL: EIVLTQSPATLSLSPGERATLSCRASKSISKYLAWYQQKPGQAPRLLIYSGSTLQSGIPARFSGSGSGTDFTLTIGSLEPEDFAVYYCQQHDWSPYTFGQGTKLEIK | 117 |
| Fab clone 1D08 (IL-13-62 library) (Fab, V domains shown, Fab on phage pIX) VH: QVTLKESGPVLVKPTETLTLTCTVSGFSLSTYGMGVGWIRQPPGKALEWLAHIWWDDVKRYNPALKSRLTISKDTSKSQVVLTMTNMDPVDTATYYCARMGSDYDVWFDYWGQGTLVTVSS VL: EIVLTQSPATLSLSPGERATLSCRASKSISKYLAWYQQKPGQAPRLLIYSGSTLQSGIPARFSGSGSGTDFTLTISSLEPEDFAVYYCQQHDWEPYTFGQGTKLEIK | 116 |
| Fab clone 1F04 (IL-13-62 library) (Fab, V domains shown, Fab on phage pIX) VH: QVTLKESGPVLVKPTETLTLTCTVSGFSLSTYGMGVGWIRQPPGKALEWLAHIWWDDVKRYNPALKSRLTISKDTSKSQVVLTMTNMDPVDTATYYCARMGSDYDVWFDYWGQGTLVTVSS VL: EIVLTQSPATLSLSPGERATLSCRASKSISKYLAWYQQKPGQAPRLLIYSGSTLQSGIPARFSGSGSGTDFTLTISSLEPEDFAVYYCQQHSSGPYTFGQGTKLEIK | 108 |
| Fab clone 1F05 (IL-13-62 library) (Fab, V domains shown, Fab on phage pIX) VH: QVTLKESGPVLVKPTETLTLTCTVSGFSLSTYGMGVGWIRQPPGKALEWLAHIWWDDVKRYNPALKSRLTISKDTSKSQVVLTMTNMDPVDTATYYCARMGSDYDVWFDYWGQGTLVTVSS VL: EIVLTQSPATLSLSPGERATLSCRASKSISKYLAWYQQKPGQAPRLLIYSGSTLQSGIPARFSGSGSGTDFTLTISSLEPEDFAVYYCQQHVGGPYTFGQGTKLEIK | 144 |
| Fab clone 1F11 (IL-13-62 library) (Fab, V domains shown, Fab on phage pIX) VH: QVTLKESGPVLVKPTETLTLTCTVSGFSLSTYGMGVGWIRQPPGKALEWLAHIWWDDVKRYNPALKSRLTISKDTSKSQVVLTMTNMDPVDTATYYCARMGSDYDVWFDYWGQGTLVTVSS VL: EIVLTQSPATLSLSPGERATLSCRASKSISKYLAWYQQKPGQAPRLLIYSGSTLQSGIPARFSGSGSGTDFTLTISSLEPEDFAVYYCQQHSVGPYTFGQGTKLEIK | 108 |
| Fab clone 1F12 (IL-13-62 library) (Fab, V domains shown, Fab on phage pIX) VH: QVTLKESGPVLVKPTETLTLTCTVSGFSLSTYGMGVGWIRQPPGKALEWLAHIWWDDVKRYNPALKSRLTISKDTSKSQVVLTMTNMDPVDTATYYCARMGSDYDVWFDYWGQGTLVTVSS VL: EIVLTQSPATLSLSPGERATLSCRASKSISKYLAWYQQKPGQAPRLLIYSGSTLQSGIPARFSGSGSGTDFTLTISSLEPEDFAVYYCQQHNHGPYTFGQGTKLEIK | 100 |
| Fab clone 1G05 (IL-13-62 library) (Fab, V domains shown, Fab on phage pIX) VH: QVTLKESGPVLVKPTETLTLTCTVSGFSLSTYGMGVGWIRQPPGKALEWLAHIWWDDVKRYNPALKSRLTISKDTSKSQVVLTMTNMDPVDTATYYCARMGSDYDVWFDYWGQGTLVTVSS VL: EIVLTQSPATLSLSPGERATLSCRASKSISKYLAWYQQKPGQAPRLLIYSGSTLQSGIPARFSGSGSGTDFTLTISSLEPEDFAVYYCQQQDIGPYTFGQGTKLEIK | 144 |
| Fab clone 1H02 (IL-13-62 library) (Fab, V domains shown, Fab on phage pIX) VH: QVTLKESGPVLVKPTETLTLTCTVSGFSLSTYGMGVGWIRQPPGKALEWLAHIWWDDVKRYNPALKSRLTISKDTSKSQVVLTMTNMDPVDTATYYCARMGSDYDVWFDYWGQGTLVTVSS VL: EIVLTQSPATLSLSPGERATLSCRASKSISKYLAWYQQKPGQAPRLLIYSGSTLQSGIPARFSGSGSGTDFTLTISSLEPEDFAVYYCQQHLLGPYTFGQGTKLEIK | 148 |
| Fab clone 1H05 (IL-13-62 library) (Fab, V domains shown, Fab on phage pIX) VH: QVTLKESGPVLVKPTETLTLTCTVSGFSLSTYGMGVGWIRQPPGKALEWLAHIWWDDVKRYNPALKSRLTISKDTSKSQVVLTMTNMDPVDTATYYCARMGSDYDVWFDYWGQGTLVTVSS VL: EIVLTQSPATLSLSPGERATLSCRASKSISKYLAWYQQKPGQAPRLLIYSGSTLQSGIPARFSGSGSGTDFTLTISSLEPEDFAVYYCQQQDYGPYTFGQGTKLEIK | 172 |
| Fab clone 1H06 (IL-13-62 library) (Fab, V domains shown, Fab on phage pIX) VH: QVTLKESGPVLVKPTETLTLTCTVSGFSLSTYGMGVGWIRQPPGKALEWLAHIWWDDVKRYNPALKSRLTISKDTSKSQVVLTMTNMDPVDTATYYCARMGSDYDVWFDYWGQGTLVTVSS VL: EIVLTQSPATLSLSPGERATLSCRASKSISKYLAWYQQKPGQAPRLLIYSGSTLQSGIPARFSGSGSGTDFTLTISSLEPEDFAVYYCQQHDWAPYTFGQGTKLEIK | 139 |
| Fab clone 1H12 (IL-13-62 library) (Fab, V domains shown, Fab on phage pIX) VH: QVTLKESGPVLVKPTETLTLTCTVSGFSLSTYGMGVGWIRQPPGKALEWLAHIWWDDVKRYNPALKSRLTISKDTSKSQVVLTMTNMDPVDTATYYCARMGSDYDVWFDYWGQGTLVTVSS VL: EIVLTQSPATLSLSPGERATLSCRASKSISKYLAWYQQKPGQAPRLLIYSGSTLQSGIPARFSGSGSGTDFTLTISSLEPEDFAVYYCQQHDLGPYTFGQGTKLEIK | 111 |
| Fab clone 2A07 (IL-13-62 library) (Fab, V domains shown, Fab on phage pIX) VH: QVTLKESGPVLVKPTETLTLTCTVSGFSLSTYGMGVGWIRQPPGKALEWLAHIWWDDVKRYNPALKSRLTISKDTSKSQVVLTMTNMDPVDTATYYCARMGSDYDVWFDYWGQGTLVTVSS VL: EIVLTQSPATLSLSPGERATLSCRASKSISKYLAWYQQKPGQAPRLLIYSGSTLQSGIPARFSGSGSGTDFTLTISSLEPEDFAVYYCQQHDPGPYTFGQGTKLEIK | 136 |
| Fab clone 2A11 (IL-13-62 library) (Fab, V domains shown, Fab on phage pIX) VH: QVTLKESGPVLVKPTETLTLTCTVSGFSLSTYGMGVGWIRQPPGKALEWLAHIWWDDVKRYNPALKSRLTISKDTSKSQVVLTMTNMDPVDTATYYCARMGSDYDVWFDYWGQGTLVTVSS VL: EIVLTQSPATLSLSPGERATLSCRASKSISKYLAWYQQKPGQAPRLLIYSGSTLQSGIPARFSGSGSGTDFTLTISSLEPEDFAVYYCQQHSHGPYTFGQGTKLEIK | 132 |
| Fab clone 2D09 (IL-13-62 library) (Fab, V domains shown, Fab on phage pIX) VH: QVTLKESGPVLVKPTETLTLTCTVSGFSLSTYGMGVGWIRQPPGKALEWLAHIWWDDVKRYNPALKSRLTISKDTSKSQVVLTMTNMDPVDTATYYCARMGSDYDVWFDYWGQGTLVTVSS VL: EIVLTQSPATLSLSPGERATLSCRASKSISKYLAWYQQKPGQAPRLLIYSGSTLQSGIPARFSGSGSGTDFTLTISSLEPEDFAVYYCQQHNVGPYTFGQGTKLEIK | 108 |
| Fab clone 2E07 (IL-13-62 library) (Fab, V domains shown, Fab on phage pIX) VH: QVTLKESGPVLVKPTETLTLTCTVSGFSLSTYGMGVGWIRQPPGKALEWLAHIWWDDVKRYNPALKSRLTISKDTSKSQVVLTMTNMDPVDTATYYCARMGSDYDVWFDYWGQGTLVTVSS VL: EIVLTQSPATLSLSPGERATLSCRASKSISKYLAWYQQKPGQAPRLLIYSGSTLQSGIPARFSGSGSGTDFTLTISSLEPEDFAVYYCQQPLEAPYTFGQGTKLEIK | 104 |
| Fab clone 2G06 (IL-13-62 library) (Fab, V domains shown, Fab on phage pIX) VH: QVTLKESGPVLVKPTETLTLTCTVSGFSLSTYGMGVGWIRQPPGKALEWLAHIWWDDVKRYNPALKSRLTISKDTSKSQVVLTMTNMDPVDTATYYCARMGSDYDVWFDYWGQGTLVTVSS VL: EIVLTQSPATLSLSPGERATLSCRASKSISKYLAWYQQKPGQAPRLLIYSGSTLQGGIPARFSGSGSGTDFTLTISSLEPEDFAVYYCQQHLDSPYTFGQGTKLEIK | 112 |
| Fab clone 3A10 (IL-13-62 library) (Fab, V domains shown, Fab on phage pIX) VH: QVTLKESGPVLVKPTETLTLTCTVSGFSLSTYGMGVGWIRQPPGKALEWLAHIWWDDVKRYNPALKSRLTISKDTSKSQVVLTMTNMDPVDTATYYCARMGSDYDVWFDYWGQGTLVTVSS VL: EIVLTQSPATLSLSPGERATLSCRASKSISKYLAWYQQKPGQAPRLLIYSGSTLQSGIPARFSGSGSGTDFTLTISSLEPEDFAVYYCQQHVWGPYTFGQGTKLEIK | 160 |
| Fab clone 3C01 (IL-13-62 library) (Fab, V domains shown, Fab on phage pIX) VH: QVTLKESGPVLVKPTETLTLTCTVSGFSLSTYGMGVGWIRQPPGKALEWLAHIWWDDVKRYNPALKSRLTISKDTSKSQVVLTMTNMDPVDTATYYCARMGSDYDVWFDYWGQGTLVTVSS VL: EIVLTQSPATLSLSPGERATLSCRASKSISKYLAWYQQKPGQAPRLLIYSGSTLQSGIPARFSGSGSGTDFTLTISSLEPEDFAVYYCQQHNFGPYTFGQGTKLEIK | 124 |
| Fab clone 3D11 (IL-13-62 library) (Fab, V domains shown, Fab on phage pIX) VH: QVTLKESGPVLVKPTETLTLTCTVSGFSLSTYGMGVGWIRQPPGKALEWLAHIWWDDVKRYNPALKSRLTISKDTSKSQVVLTMTNMDPVDTATYYCARMGSDYDVWFDYWGQGTLVTVSS VL: EIVLTQSPATLSLSPGERATLSCRASKSISKYLAWYQQKPGQAPRLLIYSGSTLQSGIPARFSGSGSGTDFTLTISSLEPEDFAVYYCQQHLNGPYTFGQGTKLEIK | 136 |
| Fab clone 3E03 (IL-13-62 library) (Fab, V domains shown, Fab on phage pIX) VH: QVTLKESGPVLVKPTETLTLTCTVSGFSLSTYGMGVGWIRQPPGKALEWLAHIWWDDVKRYNPALKSRLTISKDTSKSQVVLTMTNMDPVDTATYYCARMGSDYDVWFDYWGQGTLVTVSS VL: EIVLTQSPATLSLSPGERATLSCRASKSISKYLAWYQQKPGQAPRLLIYSGSTLQSGIPARFSGSGSGTDFTLTISSLEPEDFAVYYCQQHSIGPYTFGQGTKLEIK | 122 |
